Data on 2 proteins can be found in publication PMC2100151, “Structural and Functional Characterization of the Human Protein Kinase ASK1” (Structure(London, England:1993), 2007).

Series [1] deals with the molecule itself. The experiment in a line: AUC; sedimentation velocity; 13 μM protein in 10 mM HEPES pH 7.4, 120 mM NaCl, 0.25% glycerol, 4°C, 40,000 rpm; c(s) and c(M) distributions (SEDFIT).
Series [2] concerns the molecule itself. The experiment in a line: AUC; sedimentation equilibrium; protein at 6.5, 11.9 and 25.2 μM, 10,000 and 15,000 rpm; global fit to a self-association model; dimer to monomers.

As usually defined, the stoichiometry N is a count of units in the complex or per binding partner. The Kd is the equilibrium constant for the complex coming apart.

B1: Human ASK1 catalytic (kinase) domain, residues 659-951, phosphatase-treated (domain or fragment)
chain: not shown
modifications: mixture of un- and monophosphorylated protein; Thr838 partially phosphorylated in the crystal
notes: Apoptosis signal-regulating kinase 1 (ASK1, MAP3K5), human, residues 659-951 of the 1,374-residue protein, gi|5174547; Crystallised with 1 mM staurosporine; also called MAP3K5; ASK1 kinase domain; not shown: His6, N-terminal, cleaved
In the case of B1, in series [1], the “stoichiometry N” value was 2. Further, in series [2], binding was put at a Kd of 220 ± 200 nM.

B2: Human ASK1 catalytic (kinase) domain, homogeneously triphosphorylated (domain or fragment)
chain: not shown
modifications: phosphothreonine at 813, 838 and 842 (autophosphorylation sites identified by mass spectrometry)
notes: Apoptosis signal-regulating kinase 1 (ASK1, MAP3K5), human, residues 659-951, gi|5174547; the same recombinant construct as m1, autophosphorylated; also called Tri-phosphorylated ASK1; triphosphorylated ASK1; source: recombinant protein treated with ATP/Mg2+ (autophosphorylated)
Take B2: in series [1], the “stoichiometry N” value worked out at 2.
